Reference: publication PMC6918743, “Mammalian TRP ion channels are insensitive to membrane stretch” (Journal of Cell Science, 2019)

Target: the molecule itself
Experiment: SEC; Superose 6 10/300 GL column; 150 mM NaCl, 20 mM HEPES, 2 mM TCEP (pH 7.4); DDM-mTRPC6 protein complex; peak assigned to the tetramer

Row | Protein | stoichiometry N
1 | Δ94 mTRPC6 (94 aa N-terminally truncated mouse TRPC6) (domain or fragment, UniProt Q61143 95-930, looked up, TRPC6, Mus musculus, N-terminal truncation of 94 aa (Δ94); The limit 95 follows from the printed '94 aa truncated' N-terminal truncation; Tags removed with ProTEV Plus protease; solubilised in DDM; also called Δ94 TRPC6; N-terminal truncation (Δ94) of TRPC6; source: Sf9 (baculovirus, Bac-to-Bac), purified (amylose resin, Superose 6); not shown: His8, N-terminal, cleaved; MBP, N-terminal, cleaved) SIEEERFLDAAEYGNIPVVRKMLEECHSLNVNCVDYMGQNALQLAVANEHLEITELLLKKENLSRVGDALLLAISKGYVRIVEAILNHPAFAEGKRLATSPSQSELQQDDFYAYDEDGTRFSHDVTPIILAAHCQEYEIVHTLLRKGARIERPHDYFCKCTECSQKQKHDSFSHSRSRINAYKGLASPAYLSLSSEDPVMTALELSNELAVLANIEKEFKNDYRKLSMQCKDFVVGLLDLCRNTEEVEAILNGDAETRQPGDFGRPNLSRLKLAIKYEVKKFVAHPNCQQQLLSIWYENLSGLRQQTMAVKFLVVLAVAIGLPFLALIYWCAPCSKMGKILRGPFMKFVAHAASFTIFLGLLVMNAADRFEGTKLLPNETSTDNARQLFRMKTSCFSWMEMLIISWVIGMIWAECKEIWTQGPKEYLFELWNMLDFGMLAIFAASFIARFMAFWHASKAQSIIDANDTLKDLTKVTLGDNVKYYNLARIKWDPTDPQIISEGLYAIAVVLSFSRIAYILPANESFGPLQISLGRTVKDIFKFMVIFIMVFVAFMIGMFNLYSYYIGAKQNEAFTTVEESFKTLFWAIFGLSEVKSVVINYNHKFIENIGYVLYGVYNVTMVIVLLNMLIAMINSSFQEIEDDADVEWKFARAKLWFSYFEEGRTLPVPFNLVPSPKSLLYLLLKFKKWMCELIQGQKQGFQEDAEMNKRNEEKKFGISGSHEDLSKFSLDKNQLAHNKQSSTRSSEDYHLNSFSNPPRQYQKIMKRLIKRYVLQAQIDKESDEVNEGELKEIKQDISSLRYELLEEKSQNTEDLAELIRKLGERLSLEPKLEESRR | 4
2 | mouse TRPC6, full-length (WT) protein (natural protein, UniProt Q61143 1-930, looked up, TRPC6, Mus musculus, full-length (WT) protein; Tags removed with ProTEV Plus protease; solubilised in DDM; also called mTRPC6; WT TRPC6; source: Sf9 (baculovirus, Bac-to-Bac), purified (amylose resin, Superose 6); not shown: His8, N-terminal, cleaved; MBP, N-terminal, cleaved) MSQSPRFVTRRGGSLKAAPGAGTRRNESQDYLLMDELGDDGYPQLPLPPYGYYPSFRGNENRLTHRRQTILREKGRRLANRGPAYMFNDHSTSLSIEEERFLDAAEYGNIPVVRKMLEECHSLNVNCVDYMGQNALQLAVANEHLEITELLLKKENLSRVGDALLLAISKGYVRIVEAILNHPAFAEGKRLATSPSQSELQQDDFYAYDEDGTRFSHDVTPIILAAHCQEYEIVHTLLRKGARIERPHDYFCKCTECSQKQKHDSFSHSRSRINAYKGLASPAYLSLSSEDPVMTALELSNELAVLANIEKEFKNDYRKLSMQCKDFVVGLLDLCRNTEEVEAILNGDAETRQPGDFGRPNLSRLKLAIKYEVKKFVAHPNCQQQLLSIWYENLSGLRQQTMAVKFLVVLAVAIGLPFLALIYWCAPCSKMGKILRGPFMKFVAHAASFTIFLGLLVMNAADRFEGTKLLPNETSTDNARQLFRMKTSCFSWMEMLIISWVIGMIWAECKEIWTQGPKEYLFELWNMLDFGMLAIFAASFIARFMAFWHASKAQSIIDANDTLKDLTKVTLGDNVKYYNLARIKWDPTDPQIISEGLYAIAVVLSFSRIAYILPANESFGPLQISLGRTVKDIFKFMVIFIMVFVAFMIGMFNLYSYYIGAKQNEAFTTVEESFKTLFWAIFGLSEVKSVVINYNHKFIENIGYVLYGVYNVTMVIVLLNMLIAMINSSFQEIEDDADVEWKFARAKLWFSYFEEGRTLPVPFNLVPSPKSLLYLLLKFKKWMCELIQGQKQGFQEDAEMNKRNEEKKFGISGSHEDLSKFSLDKNQLAHNKQSSTRSSEDYHLNSFSNPPRQYQKIMKRLIKRYVLQAQIDKESDEVNEGELKEIKQDISSLRYELLEEKSQNTEDLAELIRKLGERLSLEPKLEESRR | 4
